Drawing on article PMC6208734, “Epitope determines efficacy of therapeutic anti-Tau antibodies in a functional assay with human Alzheimer Tau” (Acta Neuropathologica, 2018), this text covers Kd, koff and kon for three molecules.

First the molecules themselves.
B1: antibody F (antibody, V domains shown)
VH: EVQLVQSGAEVKKPGESLKISCKGSGYTFSNYWIEWVRQMPGKGLEWMGEILPGSDSIKYEKNFKGQVTISADKSISTAYLQWSSLKASDTAMYYCARRGNYVDDWGQGTLVTVSS
VL: EIVLTQSPGTLSLSPGERATLSCRSSQSLVHSNQNTYLHWYQQKPGQAPRLLIYKVDNRFSGIPDRFSGSGSGTDFTLTISRLEPEDFAVYYCSQSTLVPLTFGGGTKVEIK
notes: heavy chain V-region; mouse gamma-1 IgG heavy chain constant region (from the expression vector); light chain V-region; mouse kappa light chain constant region (from the expression vector); source: CHOSXE cell line, electroporated, purified (Protein A, gel filtration); copies: 2 + 2
B2: antibody A (antibody, V domains shown)
VH: EVHLVESGGALVKPGGSLKLSCAASGFSFSKYGMSWVRQTPDKRLEWVATISSSGSRTYYPDSVKGQFTISRDNAKNTLYLQMSSLKSEDTAMYYCSISWDGAMDYWGQGTSVTVSS
VL: DVLMTQTPLSLPVSLGDQASISCKSSQSIVHSNGNTYLEWYLQKPGQSPKLLVYKVSNRFSGVPDRFSGSGSGTDFTLKISRVEAEDLGTYYCFQGSLVPWAFGGGTKLEIK
notes: as for B1
B3: antibody B (antibody, V domains shown)
VH: EVKVEESGGGLVQPGGSMKLSCVVSGFTFSNYWVNWVRQSPEKGLEWVAQIRLKSDNYATHYEESVKGRFTISRDDSKSSVYLQMNNLRAEDSGIYYCTNWEDYWGQGTTLTVSS
VL: DIVLTQSPASLAVSLGQRATISCRASQSVSTSRYSYIHWYQQKPGQPPKLLIKYASNLESGVPARFSGSGSGTDFTLNIHPLEEEDAATYYCHHSWEIPLTFGAGTKLELK
notes: as for B1

The assay deals with T1, monomeric recombinant Tau (2N4R) (Homo sapiens (Human)., UniProt P10636-8).
T1 construct: Tau (microtubule-associated protein Tau), isoform 2N4R, 441 amino acids; gene synthesized by DNA2.0; also called Tau monomer; monomeric Tau; source: Expi293 expression system, purified from culture medium (Ni Sepharose Excel, TEV cleavage, second Ni Sepharose Excel); not shown: 10His-TEV, N-terminal, cleaved
T1 sequence (P10636 other isoform, or with tags, fused parts or gaps): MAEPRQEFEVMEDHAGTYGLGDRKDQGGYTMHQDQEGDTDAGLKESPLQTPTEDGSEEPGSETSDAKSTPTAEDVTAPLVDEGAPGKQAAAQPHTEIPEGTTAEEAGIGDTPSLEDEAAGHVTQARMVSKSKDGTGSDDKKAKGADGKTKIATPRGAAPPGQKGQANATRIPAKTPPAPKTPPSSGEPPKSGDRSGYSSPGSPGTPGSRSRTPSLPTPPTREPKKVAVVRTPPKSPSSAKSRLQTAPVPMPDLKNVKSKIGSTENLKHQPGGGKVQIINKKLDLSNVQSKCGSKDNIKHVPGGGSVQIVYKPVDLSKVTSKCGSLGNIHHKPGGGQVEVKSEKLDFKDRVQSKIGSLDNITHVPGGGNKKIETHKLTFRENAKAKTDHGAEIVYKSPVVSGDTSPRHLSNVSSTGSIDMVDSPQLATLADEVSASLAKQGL
As to the kind of experiment: SPR; monomeric recombinant Tau and full-length IgG; BIAcore T200, 25 °C; extrinsic affinity; who was immobilised is not told for the monomer. The following applies: both partners purified.
As for B1, the Kd stood at 117 nM, the koff is 0.0205 s⁻¹ and the kon stood at 180000 M⁻¹ s⁻¹.

For the molecule B2, the Kd is 0.16 nM, the off-rate (koff) turned out to be 5.2e-05 s⁻¹ and the kon amounted to 360000 M⁻¹ s⁻¹.

For the molecule B3, the Kd turned out to be 20.7 nM, the koff worked out at 0.000953 s⁻¹ and the kon stood at 50000 M⁻¹ s⁻¹.
